# How the values were obtained:
# [1] = target: human AITR expressed on the cell surface (human) (UniProt Q9Y5U5); experiment: flow cytometry on AITR-5 cells (HEK293 overexpressing human AITR); unstained AITR-5 panel: Q1 0.98
# [2] = target: human AITR expressed on the cell surface (human) (UniProt Q9Y5U5); experiment: flow cytometry on iTreg cells, surface AITR
# [3] = target: human AITR expressed on the cell surface (human) (UniProt Q9Y5U5); experiment: flow cytometry on human iTreg cells; average of TRX518 and MK4166
# Chain of human AITR expressed on the cell surface (human) (Q9Y5U5 26-241): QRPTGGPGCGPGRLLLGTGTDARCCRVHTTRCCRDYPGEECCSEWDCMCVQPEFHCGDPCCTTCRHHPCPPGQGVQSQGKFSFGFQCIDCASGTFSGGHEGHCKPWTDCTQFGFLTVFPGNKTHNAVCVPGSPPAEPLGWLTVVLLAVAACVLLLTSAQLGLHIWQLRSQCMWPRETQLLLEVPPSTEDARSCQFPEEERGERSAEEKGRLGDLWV
substance,measurement,setting,value
Isotype control (antibody),% of AITR-5 cells in Q1 (antibody-positive),[1],1.95%
same,"% of iTreg cells in the upper right quadrant (CD4+, antibody-positive)",[2],0.79%
MK4166 (Merck's anti-GITR antibody),"% of iTreg cells in the upper right quadrant (CD4+, antibody-positive)",[2],17.1%
same,% of iTreg cells recognized as positive for human AITR,[3],19%
TRX518 (antibody),"% of iTreg cells in the upper right quadrant (CD4+, antibody-positive)",[2],20.8%
same,% of iTreg cells recognized as positive for human AITR,[3],19%

# — US20190330358A1
